Measured values reported in the supplement of paper PMC9170038.

Assays:
MS2 coat protein [1] = assay: apparent KD of MS2 coat protein; higher = weaker reporter binding; conditions: Eterna round: R101
Method: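 RNA-MaP: designed FMN/MS2 RNA switches (84 nt design region) are transcribed on-chip within common flanks and titrated with SNAP-549-labelled MS2 coat protein (about 1-3000 nM) in 100 mM Tris pH 7.5, 80 mM KCl, 4 mM MgCl2, without or with 200 uM FMN. Median apparent KD per design; activation ratio = KD,OFF / KD,ON.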

MS2 coat protein [2] = assay: apparent KD of MS2 coat protein, switch ON state; designed switch direction (-1 OFF switch, 1 ON switch): 1; higher = weaker reporter binding; conditions: FMN input: 0 or 200 uM; Eterna round: R93 (includes R88 designs)
Summary of the method: (§1)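 SNAP-549-labelled MS2 coat protein was titrated onto designed RNA switches that had been transcribed on-chip from Illumina sequencing clusters. Amounts doubled from 0.7 or 1.5 nM to 3 µM in 100 mM Tris-HCl pH 7.5, 80 mM KCl, 4 mM MgCl2, with constant ligand or without. Apparent KD is the median per design of normalised cluster binding-curve fits.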

MS2 coat protein [3] = assay: apparent KD of MS2 coat protein, switch OFF state (with FMN for OFF switches, without FMN for ON switches); designed switch direction (-1 OFF switch, 1 ON switch): 1; higher = weaker reporter binding; conditions: FMN input: 0 or 200 uM; Eterna round: R93 (includes R88 designs)
Summary of the method: as §1

Row | Sequence | apparent KD of MS2 coat protein (MS2 coat protein [1]; input ligand: FMN 200 uM) [nM] | apparent KD of MS2 coat protein (MS2 coat protein [1]; input ligand: none) [nM] | apparent KD of MS2 coat protein (MS2 coat protein [2]) [nM] | apparent KD of MS2 coat protein (MS2 coat protein [3]) [nM]
1 | AAUAAUCUUUAAGGAUAUCAGUGGCAAAGCCACUGAGAAGGUGAGGAUCACCCAUCUACGUGACCCUGGAAACAGGGUCACGAA [#SharedSequence - ExNG1-12] (puzzle (switch architecture): Exclusion NG 1) | 84.6 | 66.7 |  | 
2 | ACACAUGAGGAUCACCCAUGUAGCUGGCGUCUGCGCCAGCCACAGGAUAUACGGUAACACAAACCGUAGAAGGGUGAUAAACAC [Inerre] (puzzle (switch architecture): Same State NG 3) | 54.5 | 113 |  | 
3 | ACACGUCGUGAGAAGGAGGAUCACCCUUUCGAAAGAAAUAGCCACCGUGAAAACGGUGGCAAAUCUUAGGAUAUCACGACGUGA [#SharedSequence - IExNG2: 5] (puzzle (switch architecture): Inverted Exclusion NG 2) | 189 | 189 |  | 
4 | AGAAACUACGAGAAGGACAUGUGGUCCUUCGGGAAAAUGAGGAUCACCCAUGUAGGAUAUCGUAGUUUCAGGAUCGUGAGAUCA [salish99_ISLExNG1_022 #HINGE] (puzzle (switch architecture): Inverted Small Loop Exclusion NG 1) | 51.1 | 69.2 |  | 
5 | AGAGCUGCUCAGAAGGAGGAUCACCCUUUCGAAAGAAAGACGGAGGCUGAAAAGCCUCCGAAAUUCUAGGAUAUGAGCAGCUCA [#SharedSequence - IExNG2: 1] (puzzle (switch architecture): Inverted Exclusion NG 2) | 411 | 204 |  | 
6 | AGGAGGAAUGUAGGAUAUAUAUAUAUAUAUAGACAAAGUGUAUAUAUAUAUAUAGAAGGACAUGAGGAUCACCCAUGUUUCCCU [#Lowering the energy 13] (puzzle (switch architecture): Small Loop Exclusion NG 1) | 6.87 | 8.11 |  | 
7 | AGGUAUACUUAGAAGGGCUCCAGCAAAGCUGGAGCAGGAUAUGAGGAUCACCCAUAUCACCUGACGGUCGAAACGACCGUCAGG [#SharedSequence - IExNG1: 8-1] (puzzle (switch architecture): Inverted Exclusion NG 1) | 26.8 | 13.2 |  | 
8 | AGGUAUACUUAGAAGGGCUCCAGCAAAGCUGGAGCAGGAUAUGAGGAUCACCCAUGUCACCUGACGGUCGAAACGACCGUCAGG [#SharedSequence - IExNG1: 9-1] (puzzle (switch architecture): Inverted Exclusion NG 1) | 76.4 | 22.8 |  | 
9 | AGGUGAGCUCGAUGGCGACAUGAGGAUCACCCAUGUACGAUCAGAAGGGCUCGGGCAAGAAGUGGGCAGGAUAUGGUCGGUGCC [Xeadion] (puzzle (switch architecture): Inverted Exclusion NG 3) | 4.5 |  |  | 
10 | CGCUAUGACAUGAGGAUCACCCAUGUAUACAUGGGAAUGACGUAGGAUAUGCAGAAGAUUAAAGUGCAGAAGGACGGCUUAGCG [JR #DistanceClose #Static #NP SSNG3 Sub064] (puzzle (switch architecture): Same State NG 3) | 1020 | 830 |  | 
11 | GACUGCAGGAUAACAACCUGCAGUCACUUCUGAGGAUCACCCAGAAGGGCUGAGGUAAUACCUCAGCAGGAUAUGGAGUGAAAA [#SharedSequence IExNG# - 5] (puzzle (switch architecture): Inverted Exclusion NG 3) | 141 | 64.3 |  | 
12 | GAGGACCUAGGAUAGGAUAUGUGAAUAAUUACAUGAGGAUCACCCAUGUCCAUUUAUAUGGGAACAUAGAAGGGUUCUGGUUAUC [SameState2 Malc#38] |  |  | 51.8 | 71.9
13 | GAUAAACAUGAGGAUCACCCAUGUAGAUAUAUGGGAGGAUAUACAAAGACGAUAGUCAAAGUAGAAGGCCUAAUAG [77%, Mat - Mod of Eli - With 4 more U's] |  |  | 29.6 | 84
14 | GCAGCUAAUGCAGGAUAUCAGCACGUGUAGUGCUGAGAAGGGCACAUGAGGAUACCCACUGUGAUCAAUUAAUAUUAAUGCUGC [salish99#hingeEx3_55-58_002] (puzzle (switch architecture): Exclusion NG 1) | 18.4 | 50.2 |  | 
15 | GCUUAUCCAUGCUAGGAUAUCGGCGAGAAAACAUGAGGAUCACCCAUGUGCUUGCAUAAAAGUCACGAGAAGGAGCCUGAUGGAC [Quanletira] |  |  | 19.7 | 17.3
16 | GGAAGACAUGAGGAUCACCCAUGUGGGAUUAUGGGAGGAUAUACAAAGACGAGAGUCAGAGUAGAAGGCCUAGGAG [salish99-ss1-122(!)] |  |  | 61.1 | 107
17 | GGAAUAAAUGCAGGAUAUACGUGGAAAGCCCUCAACAUGAGGAUCACCCAUGUAGAAGGGCAUCUCCCGACCGAAGCGGAUCUC [Laisraus] (puzzle (switch architecture): Small Loop Exclusion NG 1) | 4.83 |  |  | 

Row | Sequence | apparent KD of MS2 coat protein (MS2 coat protein [1]; input ligand: FMN 200 uM) [nM] | apparent KD of MS2 coat protein (MS2 coat protein [1]; input ligand: none) [nM] | apparent KD of MS2 coat protein (MS2 coat protein [2]) [nM] | apparent KD of MS2 coat protein (MS2 coat protein [3]) [nM]
18 | GGAGAUACAUGAGGAUCACCCAUGUAGGAUAUCGGGCCCAUAUCCGGCGAAAGCCGGAUAUGGGCCGAGAAGGGCGUACACACC [#LOL-6] (puzzle (switch architecture): Small Loop Exclusion NG 3) | 7.58 | 8.68 |  | 
19 | GGCUGCAAUUAUGAGGAUAUGUUCGGAUGAACAUGAGGAUCACCCAUGUGGCGAUAGCUAUCUGUGCAGAAGGUGUAGUGGUAGC [Edlexete] |  |  | 38.8 | 130
20 | GGGAGACAUGAGGAUCACCCAUGUAGAAGGAUGGGAGGAUAUACAAAGACGAGAGUCAGAGUAGAAGGCCUAGGAA [salish99-ss1-189-4KCAL] |  |  | 29 | 58.5
21 | GGGAGACAUGAGGAUCACCCAUGUGAGAAGAGGCGAGGAUAUCGAAAGAAAGAAGAGAAACGAGAAGGCGCGAGCC [salish99-SS1-064] |  |  | 94.2 | 66.4
22 | GGGAGGAAGAGAGAGGAUAUCCAAAGGAAAACAUGAGGAUCACCCAUGUAAAAGGUAGGAAAUUGGGAGAAGGCUCAAGAGAACG [salish99-ss2-056] |  |  | 25.5 | 28.9
23 | GGUACUCAAAGAGUACCAAUACGAACAUGAGGAUCACCCAUGUAGGAUAUGCUACUCAAAGAGUAGCAGAAGGACAUGUGUCUA [jl-ex3-3.01 #GC_VS_GU_SWITCHING] (puzzle (switch architecture): Exclusion NG 3) | 55.5 | 13.9 |  | 
24 | GGUCGACUUCAAGGAUAUGGACUGCUUUGCAGUCCAGAAGGUGAGGAUCACCCACCUACGGUCAGGUUUCUGACCGAUCGACCU [#AddUracilToBrourdLoops 4 - Jieux - Exclusion NG1] (puzzle (switch architecture): Exclusion NG 1) | 8.62 | 7.94 |  | 
25 | GUCGGAAACGACAAGUCAGCUCGUGAGGAUAUACAUAAAUUAAAGAUCACAUGAGGAUCACCCAUGUAGAAGGCACGAGCUGAU [#StaticStemDeletion - ENG2/2-A2] (puzzle (switch architecture): Small Loop Exclusion NG 3) | 455 | 195 |  | 
26 | GUGCUUGUCGAAGGAUAUGGUUACAUGAGGAUCACCCAUGUUAUGCUUGGUUACUUGUUUAGUUUCCAGAAGGUCGAUUAGUUG [salish99_ExNG2_001 #Hinge] (puzzle (switch architecture): Exclusion NG 2) | 55.7 | 23 |  | 
27 | GUGUAAAGAAUCGAGGAUAUCCAAAAAAGCACAUGAGGAUCACCCAUGUAAGAGAGAGAAUAAUGGGAGAAGGCGAGUUAUCGGU [JR_SS002_Sub1712] |  |  | 18.1 | 64.1
28 | UAGCAGUGCGGGUAGGAUAUGUAGGGUGGUACAUGAGGAUCACCCAUGUAUCCACCCUUCGACCGGCAGAAGGGCCUGUCACUGC [Edor] |  |  | 17.9 | 16.9
29 | UAUCCGGCAGUGUAGGAUAUGUUGUAGUCAACAUGAGGAUCACCCAUGUGGAUUAUAUAAGAUUCACAGAAGGGCACUGCAUUGC [Geiner] |  |  | 87.8 | 74.1
30 | UCGUCCUCGUGCUAGGAUAUCCAUCGUAAAACAUGAGGAUCACCCAUGUAGAAAUGCGCCUACGAGGAGAAGGAGCGAUGUGGAU [Velemageer] |  |  | 14.9 | 19
31 | UGGAAACAUGAGGAUCACCCAUGUAAAAGGUGGUUAGGAUAUGCAAAACGGAAAACGAAAGCAGAAGGGACAAAAA [Inspired by JR and Meechl] |  |  | 130 | 320
32 | UGGAGACAUGAGGAUCACCCAUGUGAGAAGAGGCGAGGAUAUCGAAAAAAAAAAAAAAAACGAGAAGGCGCGAGAA [salish99-SS1-007] |  |  | 28.9 | 56.3
33 | UGUCCACAUGAGGAUCACCCAUGUCAGGAGGUGACAGGAUAUUGCGAAAAAAAAAAAAAGCAAGAAGGGUCUGAUU [SameState1-cac1] |  |  | 36.4 | 98.4
34 | UUACAGCACAGGUAGGAUAUGUAGGGUGGUACAUGAGGAUCACCCAUGUAUCCACCCUUCGAAAGGCAGAAGGGCCUGUCGCCGC [Leanisqube] |  |  | 13.1 | 15
